Literature values, collected in patent US8337823B2, “Modified macromolecule” (priority 2006, dated 2012).

conditions: pH 4 and pH 5

| Substance | stability of the conjugate in acidic conditions |
| --- | --- |
| α-methoxy-ω-(N-(2-methyl-s-octadedcyloxy-[1,3]dioxan-5-yl)-amido}-polyethyleneglycol110 | not stable |
| α-methoxy-ω-N-(2-octadecyloxy-[1,3]dioxolan-4-yl)methylamido}-polyethyleneglycol110 | good stability at both pH 4 and 5 |
| α-methoxy-ω-{N-2-(3-hydroxypropyl-cholesterylcarbamate)-2-methyl-[1,3]dioxan-5-yl-amido}-polyethyleneglycol110 | not stable |
| α-methoxy-ω-{N-(2-cholesteryloxy-[1,3]dioxolan-4-yl)methylamido)-polyethyleneglycol110 | very stable at pH 5 but moderately less stable at pH 4 |
